Tests used:
CD105 (endoglin) [1] = molecular target: T1, CD105 (endoglin) (UniProt P17813 26-586, limits assumed); experiment: CD105 binding ELISA; F04 (pH 5.5, 20 mM histidine, 240 mM trehalose, 50 mg/ml), 5 C, 6 months
T1 construct: Soluble protein captured on the plate
T1 sequence (looked up): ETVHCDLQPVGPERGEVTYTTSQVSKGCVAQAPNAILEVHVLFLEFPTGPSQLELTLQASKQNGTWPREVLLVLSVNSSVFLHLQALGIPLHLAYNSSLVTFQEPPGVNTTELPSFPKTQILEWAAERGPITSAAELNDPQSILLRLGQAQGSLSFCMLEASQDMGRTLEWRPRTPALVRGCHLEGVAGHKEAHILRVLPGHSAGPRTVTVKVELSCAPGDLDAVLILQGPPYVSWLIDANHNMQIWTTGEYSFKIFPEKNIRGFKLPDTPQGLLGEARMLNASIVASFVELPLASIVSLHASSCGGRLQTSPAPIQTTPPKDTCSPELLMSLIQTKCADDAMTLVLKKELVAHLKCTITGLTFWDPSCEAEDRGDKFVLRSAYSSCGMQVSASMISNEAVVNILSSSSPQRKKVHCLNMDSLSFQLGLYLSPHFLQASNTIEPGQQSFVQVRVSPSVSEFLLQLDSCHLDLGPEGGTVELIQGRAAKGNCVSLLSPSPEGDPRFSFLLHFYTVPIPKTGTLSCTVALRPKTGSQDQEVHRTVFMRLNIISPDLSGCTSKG

CD105 (endoglin) [2] = molecular target: T1, CD105 (endoglin); experiment: CD105 binding ELISA; TRC105 4 mg/mL in 17 mM phosphate, 145 mM NaCl, pH 7.2 (Lot FIN-0536), 2-8 C, 36 months
CD105 (endoglin) [3] = molecular target: T1, CD105 (endoglin); experiment: CD105 binding ELISA; F07 (pH 4.0, 20 mM acetate, 240 mM trehalose, 100 mg/ml), 5 C, initial
CD105 (endoglin) [4] = molecular target: T1, CD105 (endoglin); experiment: CD105 binding ELISA; TRC105 4 mg/mL in 17 mM phosphate, 145 mM NaCl, pH 7.2 (Lot FIN-0536), 2-8 C, 9 months
CD105 (endoglin) [5] = molecular target: T1, CD105 (endoglin); experiment: CD105 binding ELISA; F01 (pH 5.5, 20 mM histidine, 240 mM trehalose, 25 mg/ml), 5 C, 6 months
CD105 (endoglin) [6] = molecular target: T1, CD105 (endoglin); experiment: CD105 binding ELISA; F02 (pH 5.5, 20 mM histidine, 240 mM sorbitol, 25 mg/ml), 5 C, 12 months
CD105 (endoglin) [7] = molecular target: T1, CD105 (endoglin); experiment: CD105 binding ELISA; F01 (pH 5.5, 20 mM histidine, 240 mM trehalose, 25 mg/ml), 5 C, 12 months
CD105 (endoglin) [8] = molecular target: T1, CD105 (endoglin); experiment: CD105 binding ELISA; F02 (pH 5.5, 20 mM histidine, 240 mM sorbitol, 25 mg/ml), 5 C, initial
CD105 (endoglin) [9] = molecular target: T1, CD105 (endoglin); experiment: CD105 binding ELISA; TRC105 4 mg/mL in 17 mM phosphate, 145 mM NaCl, pH 7.2 (Lot FIN-0536), 25 C/60% RH study, initial (same initial value as in Table 18)
CD105 (endoglin) [10] = molecular target: T1, CD105 (endoglin); experiment: CD105 binding ELISA; F06 (pH 5.5, 20 mM histidine, 240 mM trehalose, 100 mg/ml), 5 C, 6 months
CD105 (endoglin) [11] = molecular target: T1, CD105 (endoglin); experiment: CD105 binding ELISA; F05 (pH 4.0, 20 mM acetate, 240 mM trehalose, 50 mg/ml), 5 C, 12 months
CD105 (endoglin) [12] = molecular target: T1, CD105 (endoglin); experiment: CD105 binding ELISA; F04 (pH 5.5, 20 mM histidine, 240 mM trehalose, 50 mg/ml), 5 C, 12 months
CD105 (endoglin) [13] = molecular target: T1, CD105 (endoglin); experiment: CD105 binding ELISA; F02 (pH 5.5, 20 mM histidine, 240 mM sorbitol, 25 mg/ml), 5 C, 6 months
CD105 (endoglin) [14] = molecular target: T1, CD105 (endoglin); experiment: CD105 binding ELISA; F06 (pH 5.5, 20 mM histidine, 240 mM trehalose, 100 mg/ml), 5 C, initial
CD105 (endoglin) [15] = molecular target: T1, CD105 (endoglin); experiment: CD105 binding ELISA; TRC105 4 mg/mL in 17 mM phosphate, 145 mM NaCl, pH 7.2 (Lot FIN-0536), 2-8 C, 12 months
CD105 (endoglin) [16] = molecular target: T1, CD105 (endoglin); experiment: CD105 binding ELISA; TRC105 4 mg/mL in 17 mM phosphate, 145 mM NaCl, pH 7.2 (Lot FIN-0536), 2-8 C, initial
CD105 (endoglin) [17] = molecular target: T1, CD105 (endoglin); experiment: CD105 binding ELISA; F06 (pH 5.5, 20 mM histidine, 240 mM trehalose, 100 mg/ml), 5 C, 12 months
CD105 (endoglin) [18] = molecular target: T1, CD105 (endoglin); experiment: CD105 binding ELISA; F07 (pH 4.0, 20 mM acetate, 240 mM trehalose, 100 mg/ml), 5 C, 12 months
CD105 (endoglin) [19] = molecular target: T1, CD105 (endoglin); experiment: CD105 binding ELISA; F04 (pH 5.5, 20 mM histidine, 240 mM trehalose, 50 mg/ml), 5 C, initial
CD105 (endoglin) [20] = molecular target: T1, CD105 (endoglin); experiment: CD105 binding ELISA; F03 (pH 4.0, 20 mM acetate, 240 mM sorbitol, 25 mg/ml), 5 C, initial
CD105 (endoglin) [21] = molecular target: T1, CD105 (endoglin); experiment: CD105 binding ELISA; TRC105 4 mg/mL in 17 mM phosphate, 145 mM NaCl, pH 7.2 (Lot FIN-0536), 2-8 C, 18 months
CD105 (endoglin) [22] = molecular target: T1, CD105 (endoglin); experiment: CD105 binding ELISA; TRC105 4 mg/mL in 17 mM phosphate, 145 mM NaCl, pH 7.2 (Lot FIN-0536), 2-8 C, 30 months
CD105 (endoglin) [23] = molecular target: T1, CD105 (endoglin); experiment: CD105 binding ELISA; F05 (pH 4.0, 20 mM acetate, 240 mM trehalose, 50 mg/ml), 5 C, initial
CD105 (endoglin) [24] = molecular target: T1, CD105 (endoglin); experiment: CD105 binding ELISA; TRC105 4 mg/mL in 17 mM phosphate, 145 mM NaCl, pH 7.2 (Lot FIN-0536), 2-8 C, 6 months
CD105 (endoglin) [25] = molecular target: T1, CD105 (endoglin); experiment: CD105 binding ELISA; F03 (pH 4.0, 20 mM acetate, 240 mM sorbitol, 25 mg/ml), 5 C, 12 months
CD105 (endoglin) [26] = molecular target: T1, CD105 (endoglin); experiment: CD105 binding ELISA; F01 (pH 5.5, 20 mM histidine, 240 mM trehalose, 25 mg/ml), 5 C, initial
CD105 (endoglin) [27] = molecular target: T1, CD105 (endoglin); experiment: CD105 binding ELISA; TRC105 4 mg/mL in 17 mM phosphate, 145 mM NaCl, pH 7.2 (Lot FIN-0536), 2-8 C, 24 months
CD105 (endoglin) [28] = molecular target: T1, CD105 (endoglin); experiment: CD105 binding ELISA; TRC105 4 mg/mL in 17 mM phosphate, 145 mM NaCl, pH 7.2 (Lot FIN-0536), 25 C/60% RH, 1 month

B1: TRC105 (an anti-CD105 antibody) (antibody, human IgG1, kappa, V domains shown)
VH: EVKLEESGGGLVQPGGSMKLSCAASGFTFSDAWMDWVRQSPEKGLEWVAEIRSKASNHATYYAESVKGRFTISRDDSKSSVYLQMNSLRAEDTGIYYCTRWRRFFDSWGQGTTLTVSS
VL: QIVLSQSPAILSASPGEKVTMTCRASSSVSYMHWYQQKPGSSPKPWIYATSNLASGVPVRFSGSGSGTSYSLTISRVEAEDAATYYCQQWSSNPLTFGAGTKLELKR
notes: each chain is built here as variable plus constant region; The same antibody was tested in different formulations and after different storage times; also called Lot FIN-0536
Percent Relative CD105 Binding Potency (CD105 (endoglin) [1]): 97 % relative to reference standard | CD105 Binding by ELISA (binding activity relative to reference standard) (CD105 (endoglin) [2]): 105 % relative to reference standard | Percent Relative CD105 Binding Potency (CD105 (endoglin) [3]): 100 % relative to reference standard | CD105 Binding by ELISA (binding activity relative to reference standard) (CD105 (endoglin) [4]): 104 % relative to reference standard | Percent Relative CD105 Binding Potency (CD105 (endoglin) [5]): 94 % relative to reference standard | Percent Relative CD105 Binding Potency (CD105 (endoglin) [6]): 69 % relative to reference standard | Percent Relative CD105 Binding Potency (CD105 (endoglin) [7]): 68 % relative to reference standard | Percent Relative CD105 Binding Potency (CD105 (endoglin) [8]): 90 % relative to reference standard | CD105 Binding by ELISA (binding activity relative to reference standard) (CD105 (endoglin) [9]): 88 % relative to reference standard | Percent Relative CD105 Binding Potency (CD105 (endoglin) [10]): 95 % relative to reference standard | Percent Relative CD105 Binding Potency (CD105 (endoglin) [11]): 96 % relative to reference standard | Percent Relative CD105 Binding Potency (CD105 (endoglin) [12]): 74 % relative to reference standard | Percent Relative CD105 Binding Potency (CD105 (endoglin) [13]): 90 % relative to reference standard | Percent Relative CD105 Binding Potency (CD105 (endoglin) [14]): 93 % relative to reference standard | CD105 Binding by ELISA (binding activity relative to reference standard) (CD105 (endoglin) [15]): 91 % relative to reference standard | CD105 Binding by ELISA (binding activity relative to reference standard) (CD105 (endoglin) [16]): 88 % relative to reference standard | Percent Relative CD105 Binding Potency (CD105 (endoglin) [17]): 115 % relative to reference standard | Percent Relative CD105 Binding Potency (CD105 (endoglin) [18]): 86 % relative to reference standard | Percent Relative CD105 Binding Potency (CD105 (endoglin) [19]): 123 % relative to reference standard | Percent Relative CD105 Binding Potency (CD105 (endoglin) [20]): 124 % relative to reference standard | CD105 Binding by ELISA (binding activity relative to reference standard) (CD105 (endoglin) [21]): 88 % relative to reference standard | CD105 Binding by ELISA (binding activity relative to reference standard) (CD105 (endoglin) [22]): 88 % relative to reference standard | Percent Relative CD105 Binding Potency (CD105 (endoglin) [23]): 179 % relative to reference standard | CD105 Binding by ELISA (binding activity relative to reference standard) (CD105 (endoglin) [24]): 110 % relative to reference standard | Percent Relative CD105 Binding Potency (CD105 (endoglin) [25]): 77 % relative to reference standard | Percent Relative CD105 Binding Potency (CD105 (endoglin) [26]): 101 % relative to reference standard | CD105 Binding by ELISA (binding activity relative to reference standard) (CD105 (endoglin) [27]): 136 % relative to reference standard | CD105 Binding by ELISA (binding activity relative to reference standard) (CD105 (endoglin) [28]): 91 % relative to reference standard

— US20180311359A1 (TRACON PHARMACEUTICALS, published 2018)
